Test results as given in paper doi:10.1101/2023.05.25.542299.

Experiments:
[1] = target: FITC-labeled 45-mer peptide derived from the C-terminal region of IKKβ; experiment: fluorescence polarisation; fluorescence anisotropy binding assay with the FITC-labeled IKKβ 45-mer peptide and NEMO proteins; conditions not told (refs 13, 23)
[2] = target: 45-mer peptide of IKKβ (as used in the CD experiments); experiment: circular dichroism (spectra and thermal denaturation with and without ligand); 10 µM NEMO protein with or without equimolar IKKβ 45-mer peptide, incubated 1 h at room temperature; 20 mM sodium phosphate, 500 mM NaCl, pH 7.4; spectra at 25 °C, melt 10 to 70 °C at 222 nm

Chain of full-length WT NEMO (aa 1–419), bacterially expressed (Q9Y6K9 whole entry, the tested form may be a part): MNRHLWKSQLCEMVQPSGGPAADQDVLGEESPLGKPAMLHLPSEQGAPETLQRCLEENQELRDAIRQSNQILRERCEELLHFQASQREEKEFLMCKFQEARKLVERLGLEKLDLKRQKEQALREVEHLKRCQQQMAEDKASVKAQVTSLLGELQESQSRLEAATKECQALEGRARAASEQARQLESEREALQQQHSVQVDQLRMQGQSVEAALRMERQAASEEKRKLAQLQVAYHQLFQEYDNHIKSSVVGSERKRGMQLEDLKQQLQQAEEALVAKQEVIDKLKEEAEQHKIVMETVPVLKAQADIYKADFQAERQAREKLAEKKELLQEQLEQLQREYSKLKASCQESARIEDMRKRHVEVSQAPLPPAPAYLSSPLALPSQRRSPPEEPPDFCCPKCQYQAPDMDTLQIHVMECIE

| Substance | Kd [1] | increase in Tm with equimolar peptide [2] |
| --- | --- | --- |
| full-length WT NEMO (aa 1–419), bacterially expressed (from UniProt Q9Y6K9 1-419) (natural protein) | 4.7 nM | 3 °C |
| NEMO 1–419 OPTN-IVD, bacterially expressed (from UniProt Q9Y6K9 1-419) (natural protein) | 33 nM | 5 °C |
